According to PMC7611088:

Molecular target: human β3 homopentameric GABAAR construct (K279T, M3-M4 loop replaced by SQPARAA) (human) (UniProt P28472)
Assay: cryo-EM structure

## human β3 homopentameric GABAAR construct (K279T, M3-M4 loop replaced by SQPARAA) (from UniProt P28472 26-473) (receptor)
  stoichiometry N: 5
